Patent US10945997B2, “Polymer derivative of macrolide immunosuppressant” (Nippon Kayaku Kabushiki Kaisha, priority 2016, dated 2021)
Read-outs that look alike come from different tables or passages of the source. Marks after values point to notes of the source that are not given here.

Columns and labels:
[1] = rats; cited from earlier work
[2] = Blood concentration profile in rats (1)
Method: Blood Concentration Profile in Rats (1)
(§1) At 5 minutes, 1 hour, 6 hours, 24 hours, and 72 hours after administration, blood was collected through the jugular vein under isoflurane anesthesia successively in an amount of 0.3 mL each time, and the tacrolimus concentration in the collected blood was measured.

[3] = rat, in vivo, iv, 5 mg/kg
Method: Blood Concentration Profile in Rats (1)
as §1

[4] = system: rat collagen-induced arthritis; assay: Anti-inflammatory effect for rat collagen-induced arthritis (1); assay type: in vivo; details: 5 mg/kg, q7 d × 4, i.v., DA rats, average score 0-5, footnote: Score 29 d
Method: Anti-Inflammatory Effect for Rat Collagen-Induced Arthritis (1)
0.3 mg of bovine articular cartilage-derived type II collagen (immunological grade; Collagen Research Center, Ltd.) was intradermally administered on the dorsal side of nine-week old female DA rats (Japan SLC, Inc.), and thereby collagen-induced arthritis was induced in the rats. […] As a control, a non-administered group was provided. Determination of arthritis was made by scoring based on visual inspection.
From the time point after the sensitization with bovine articular cartilage-derived type II collagen, the progress of inflammation in the right hind limb and the left hind limb was monitored. It was determined that the onset of collagen-induced arthritis occurred when reddening was recognized in the toes of the right hind limb or the left hind limb. The extent of arthritis was evaluated in six stages according to the following scores from 0 to 5. […]

Tmax ([2]; female SD rats, i.v. once 5 mg/kg, tacrolimus in blood) [min]	concentration at 72 h ([2]; female, SD, rat, whole blood, iv, 5 mg/kg) [ng/mL]	Compound	signs caused by intravenous administration [1]	AUCinf. [3] [ng·h/mL]	Cmax [3] [ng/mL]	MRTinf. [3] [h]	MRTinf. compared to tacrolimus [3]	Tmax [3] [min]	T½ [3] [h]	blood concentration half-life compared to tacrolimus [3]	Arthritis score (29 d) [4]
5	0.273	C=CC[C@@H]1/C=C(\C)C[C@H](C)C[C@H](OC)[C@H]2O[C@@](O)(C(=O)C(=O)N3CCCC[C@H]3C(=O)O[C@H](/C(C)=C/[C@@H]3CC[C@@H](O)[C@H](OC)C3)[C@H](C)[C@@H](O)CC1=O)[C@H](C)C[C@@H]2OC [Tacrolimus, tacrolimus]	slight respiratory distress, a decrease in locomotor activity, a prone position, stereotyped behavior								
		Tacrolimus-Bonded Polyethylene Glycol-αβ-Polyaspartic Acid Block Copolymer [Comparative Example 1]		1050	280	11.6	prolongation	5	9.57	prolongation	2.6*
